This test has as its target Cav3.1 channel (α3.1 subunit). Nature of the test: cell-based or functional assay.

Turning to VGLFFALA [γ1 TM1a T12GI16A peptide], the inhibition of Cav3.1 current at 30 µM peptide stood at 29.4%.
As to LGLLVAIV [γ6 TM1a peptide], the amplitude of the fast component (Afast) of the unbinding process after 300 µM peptide (bi-exponential fit of current recovery) (normalized fraction) was -0.37; the apparent affinity (Kapp), overall stood at 50 µM; the dissociation rate estimated from the time constant of Cav3.1 current recovery is 0.167 s⁻¹; the fast time constant for binding (fit of current inhibition) was less than 9 s. Besides, the fast time constant for unbinding (fit of current recovery) was less than 9 s; the fold increase in affinity between -130 mV and -80 mV holding potential worked out at 3 fold; the inhibition of Cav3.1 current at 30 µM peptide (whole-cell patch clamp, HEK/Cav3.1) turned out to be 45.3%; the inhibition of Cav3.1 current at 100 µM peptide, -100 mV stood at 60%. Moreover, the inhibition of Cav3.1 current at 300 µM peptide amounted to 79.3%; the reversible part of the Cav3.1 current inhibition at 30 µM peptide amounted to 73%; the time constant of the small slower component of the binding and unbinding processes is greater than 30 s.
Regarding LLILAVGV [γ6 TM1a SCR peptide], the inhibition of Cav3.1 current at 30 µM peptide is 0.5%.
On the same count and under the same terms, the result for VTLFFILA [γ1 TM1a peptide] reads 2.4%.
